The results in this text go back to article PMC2603313, “Direct Inhibition of GSK3β by the Phosphorylated Cytoplasmic Domain of LRP6 in Wnt/β-Catenin Signaling” (PLoS ONE, 2008).

Experiment [1] deals with T1, GSK3β (Mus musculus, UniProt Q9WV60).
T1 construct: The catalytic domains of mouse GSK3β (residues 27–393) and CK1ε (residues 1–319) were expressed and purified; made in house
Description: Far western binding of GSK3β to GST-fused LRP6 fragments. As to conditions: for Binding of GSK3β: GST-fusion treated with GSK3β and CK1, GSK3β 1 µg/ml, three independent experiments. The source says:
We first investigated whether the intracellular region of LRP6 binds to GSK3β in a phosphorylation-dependent manner. To detect binding, we used recombinant GST-fused LRP6 fragments (miniCL, miniCLMT, PPPSPxS, PPPAPxS; Fig. 1A) and GSK3β proteins in a far western binding assay. This assay is appropriate as the LRP6 cytoplasmic region is expected to be natively unstructured and therefore should not suffer from denaturation artifacts. Prior to the binding reaction, the GST-fused LRP6 fragments were phosphorylated by GSK3β and CK1 and transferred to a PVDF membrane. The membrane was incubated with GSK3β, and bound GSK3β was detected with an anti-GSK3β antibody. GSK3β bound to GST-miniCL and GST-miniCLMT, but not GST-PPPSPxS or GST-PPPAPxS (Fig. 4). […] Also, given the measured Ki value of the single PPPSPxS motif, it was expected that the single PPPSPxS motif might exert a limited role in recruiting the GSK3β.
Figure 4 Phosphorylation-dependent binding of the LRP6 intracellular region to GSK3β in the absence and presence of Axin. (A) GST (Lane 1), GST-fused miniCL (Lane 3; GST-miniCL), GST-fused miniCLMT (Lane 5; GST-miniCLMT), and their phosphorylated forms (Lanes 2, 4, 6; indicated by “phos”) were loaded onto an SDS-polyacrylamide gel, and then transferred to PVDF membrane (Left top). […] The phosphorylated protein bands show an upshifted mobility on the gel. The PVDF membrane was incubated with 1 µg/ml of GSK3β to allow GSK3β to bind to the proteins in the membrane. The bound GSK3β was visualized on the transferred proteins by western blotting using an anti-GSK3β antibody (Left bottom), and the GSK3β protein used to obtain the phosphorylated forms of each protein is indicated by GSK3β*. The band intensities of bound GSK3β were measured from the three independent experiments (Right). […] The phosphorylated GST-fused miniCL was transferred to PVDF membrane, and the membrane was incubated with GSK3β (0.1 µg/ml) and GST-fused Axin GBD domain protein (0, 10 µM). Error bars indicate the standard deviation from three independent experiments. […]

The target in experiment [2] is T1, GSK3β. Description: In vitro GSK3β activity assay with synthetic peptides (phosphorylation of primed β-catenin N-terminal fragment). It counts as biochemical. The following applies: at 100 µM; primed β-catenin N-terminal fragment 7 µM, 1 mM ATP, pH 8.0, 30 min at 37°C; 4–7 independent experiments. The source says:
We synthesized one dually-phosphorylated (NPPPpSPApTERSH, where pS or pT designates a phosphorylated Ser or Thr residue), two singly-phosphorylated (NPPPSPApTERSH and NPPPp[…]) and one non-phosphorylated ([…]) peptides derived from the first PPPSPxS motif of LRP6 (Fig. 1A). To measure the GSK3β activity toward β-catenin in vitro, we utilized a β-catenin N-terminal fragment (residues 1–133), whose Ser45 was prephosphorylated by CK1, as a substrate (Ha et al., 2004). Each synthetic peptide was added to a reaction mixture containing the purified GSK3β enzyme and the substrate β-catenin N-terminal fragment. The GSK3β activity was determined through measurement of the intensity of the supershifted (retarded) β-catenin bands (Fig. S3), which represent the phosphorylated product species (Fig. S4), on an SDS-polyacrylamide gel (Figs. S3, S4, S5, S6, S7). […] This corresponds well with the results of Zeng et al., who reported that the first Ser residue in the PPPSPxS motif has a more important role in Wnt/β-catenin signaling than the second Ser residue.
The catalytic domains of mouse GSK3β (residues 27–393) and CK1ε (residues 1–319) were expressed and purified as previously described. The N-terminal region (residues 1–133) of β-catenin was expressed in Escherichia coli as a GST-fusion protein with a TEV protease cleavage site and then purified using Glutathione-agarose. Subsequently, the GST tag was cleaved using recombinant TEV protease and was removed by repeated HiTrapQ anion-exchange chromatography. The N-terminal region of β-catenin was then phosphorylated by incubation with the catalytic domain of CK1ε (0.28 mg/ml) at 37°C for 20 min in 50 mM Tris buffer (pH 8.0) containing 10 mM MgCl2, 10 mM 2-mercaptoethanol, and 2 mM phenylmethylsulfonylfluoride. The phosphorylated β-catenin fragment was then further purified using HiTrapQ anion-exchange chromatography to remove the CK1ε enzyme. […]

Experiment [3] addresses T2, catalytic domain of mouse GSK3β (residues 27–393) (mouse, UniProt Q9WV60 27-393).
T2 construct: GSK3β (glycogen synthase kinase 3 beta), mouse, catalytic domain, residues 27-393; also called recombinant GSK3β catalytic domain; source: recombinant, expressed and purified as previously described [32]
Description: far-Western, overlay or dot blot; GST-fused LRP6 fragments (with or without prior treatment with GSK3β and CK1) run on SDS-PAGE and transferred to PVDF; membrane incubated 3 h with 1 µg/ml GSK3β in 5% skim milk in TBST (20 mM Tris pH 7.6, 137 mM NaCl, 0.05% Tween 20); bound GSK3β detected with anti-GSK3β antibody. As to conditions: both partners purified.

Ends that are not written are not given here.

Regarding “GST-miniCL: GST-fused human LRP6 miniCL, residues 1470–1510 (SSSSSSTKGTYFPAILNPPPSPATERSHYTMEFGYSSNSPS; also: GST fusion (GST left off))”, in the experiment with GSK3β [1], the “Binding of GSK3β” value was “bound”.

With “GST-miniCLMT: GST-fused miniCLMT, residues 1470–1510 with substitution at Ser1490 with Ala (SSSSSSTKGTYFPAILNPPPAPATERSHYTMEFGYSSNSPS; also: GST fusion (GST left off))”, in the experiment with GSK3β [1], the “Effect of S1490A mutation on GSK3β binding” value is on record as “does not affect binding” and the “Binding of GSK3β” value is “bound”.

On to “NPPPSPApTERSH [PPPSPx(p)S, singly-phosphorylated peptide (second Ser/Thr) derived from the first PPPSPxS motif of LRP6]”, for which, at GSK3β [2], the “Inhibitory effect on GSK3β activity toward β-catenin” value was “only a marginal inhibitory effect”.

B1: GST-fused LRP6 miniCL (residues 1470–1510 of human LRP6), phosphorylated by GSK3β and CK1 (domain or fragment, UniProt O75581 1470-1510, looked up)
chain: SSSSSSTKGTYFPAILNPPPSPATERSHYTMEFGYSSNSPS
modifications: also: GST-fused, end not given here, phosphorylated by GSK3β and CK1ε, sites not given here
notes: LRP6, human, intracellular fragment miniCL, residues 1470-1510 (Ser/Thr rich cluster and first PPPSPxS motif); also called phosphorylated GST-miniCL; GST-miniCL phos; source: E. coli, purified (Glutathione-agarose, HiTrapQ), then phosphorylated in vitro with recombinant GSK3β and CK1ε
For B1, the binding result in experiment [3] is on record as “binds”.

B2: GST-fused LRP6 miniCLMT (residues 1470–1510 of human LRP6, S1490A), phosphorylated by GSK3β and CK1 (domain or fragment, UniProt O75581 1470-1510, looked up)
chain: SSSSSSTKGTYFPAILNPPPAPATERSHYTMEFGYSSNSPS
modifications: also: GST-fused, end not given here, phosphorylated in vitro by GSK3β and CK1ε, sites not given here
notes: LRP6, human, intracellular fragment miniCL, residues 1470-1510, with Ser1490 replaced by Ala; also called phosphorylated GST-miniCLMT; GST-miniCLMT phos; source: E. coli, purified (Glutathione-agarose, HiTrapQ), then phosphorylated in vitro with recombinant GSK3β and CK1ε
B2: the binding result in experiment [3] is recorded as “binds”.

B3: GST-fused LRP6 miniCLMT (residues 1470–1510 of human LRP6, S1490A), not phosphorylated (domain or fragment, UniProt O75581 1470-1510, looked up)
chain: SSSSSSTKGTYFPAILNPPPAPATERSHYTMEFGYSSNSPS
modifications: also: GST fusion (GST left off)
notes: LRP6, human, intracellular fragment miniCL, residues 1470-1510, with Ser1490 replaced by Ala; also called GST-miniCLMT; source: E. coli, purified (Glutathione-agarose, HiTrapQ)
As for B3, the binding result in experiment [3] is “binds”.
